{
  "source": "paper PMC7128310",
  "about": "“Negative Regulation of TLR Signaling by BCAP Requires Dimerization of Its DBB Domain” (The Journal of Immunology Author Choice, 2020)",
  "molecular_target": "the molecule itself",
  "experiment": "SEC-MALS; 50 μl at 2 mg/ml on Superdex 200 Increase 10/300 GL",
  "data": [
    {"protein": "BCAP DBB-ANK (residues 179-404) (domain or fragment, human, UniProt Q6ZUJ8 179-404, looked up, B cell adaptor protein (BCAP), human, DBB and ANK domains, residues 179-404; Cloned into pMCSG7 or pMCSG9; source: E. coli BL21(DE3), purified (Ni-NTA, TEV, Superdex 200)) MVVQPDRIRCGAETTVYVIVRCKLDDRVATEAEFSPEDSPSVRMEAKVENEYTISVKAPNLSSGNVSLKIYSGDLVVCETVISYYTDMEEIGNLLSNAANPVEFMCQAFKIVPYNTETLDKLLTESLKNNIPASGLHLFGINQLEEEDMMTNQRDEELPTLLHFAAKYGLKNLTALLLTCPGALQAYSVANKHGHYPNTIAEKHGFRDLRQFIDEYVETVDMLKSH", "values": [
      {"measurement": "stoichiometry N", "value": 2}
    ]}
  ]
}
